Measurements published in publication PMC12642504 (bioRxiv, 2025).

Target: BG505 MD39.3 SOSIP trimer (soluble Env trimer, SPR analyte) (HIV-1 group M subtype A, isolate BG505, stabilised)
Experiment: SPR

B1: V2-Int1 antibody (PCT64-18D), human IgG1 (antibody, V domains shown)
VH: EVQLVESGGGLVKPGGSLRLSCVGSGFAFSDAWMTWVRQAPGKGLEWVGHMRPTPEGGAKDYAAPVKGRFTVSRDDSKNTLYLQMNSLKIEDTAVYYCMTGVETGDFWSDYYAQYYDPYLIDVWGKGTTVTVSS
VL: EIVLTQSPGTLSLSPGDRATLSCRATQSVDSNYLAWYQQKPGQAPRLLIYGTSSRAAGIPDRFSGSGSGTDFTLTIDRLEPEDFAVYYCRQYGTSFTFGPGTKVDIK
For B1, the Kd was 770 nM.
